What was measured:
[1] = system: C[C@H](CCC(=O)O)[C@H]1CC[C@H]2[C@@H]3[C@H](O)C[C@@H]4C[C@H](O)CC[C@]4(C)[C@H]3C[C@H](O)[C@]12C; test: Enzyme kinetics (Michaelis-Menten) in microtiter plate photometer, cell lysate; type: biochemical, Clostridium sp. group P strain 48-50; details: other: WT; constant 100 µM NADP^+, 6 µM to 10 mM Cholsäure (32 concentrations); nonlinear regression
From the text: (§1) Für jede der Mutanten sowie für das Wildtyp-Enzym wurden Kinetikmessungen im Mikrotiterplattenphotometer durchgeführt, indem die Umsatzraten der Enzyme sowohl mit gleichbleibenden Substratkonzentrationen bei variierten Kofaktorkonzentrationen als auch vice versa aufgezeichnet wurden. Zur Bestimmung der spezifischen Enzymaktivität wurden die Enzymkonzentrationen im Zelllysat densitometrisch bestimmt.
(§2) Zur Ermittlung der Abhängigkeit der Substratumsatzgeschwindigkeit von der Substratkonzentration wurde eine Kofaktorkonzentration von 100 µM NADP^+ eingesetzt, während die Substratkonzentration über einen Bereich von 6 µM bis 10 mM Cholsäure mit 32 verschiedenen Konzentrationen variiert wurde.
(§3) Zur Ermittlung der Abhängigkeit der Substratumsatzgeschwindigkeit von der Kofaktorkonzentration wurde eine Substratkonzentration von 10 mM Cholsäure bezogen auf das Reaktionsvolumen eingesetzt, während die Kofaktorkonzentration über einen Bereich von 2 µM bis 100 µM NADP^+ mit 16 verschiedenen Konzentrationen beim Wildtypprotein bzw. über einen Bereich von 2 µM bis 1000 µM NADP^+ mit 24 verschiedenen Konzentrationen bei den beiden Mutanten variiert wurde (jeweils bezogen auf den Raktionsansatz).
(§4) Über das eingesetzte Volumen an Zelllysat lässt sich die volumenbezogene Enzymaktivität berechnen. Zusammen mit den bestimmten Enzymkonzentrationen lassen sich die spezifischen Enzymaktivitäten berechnen. […]

[2] = system: NC(=O)c1ccc[n+]([C@@H]2O[C@H](COP(=O)([O-])OP(=O)(O)OC[C@H]3O[C@@H](n4cnc5c(N)ncnc54)[C@H](OP(=O)(O)O)[C@@H]3O)[C@@H](O)[C@H]2O)c1; test: as above; type: biochemical, Clostridium sp. group P strain 48-50; details: other: WT; constant 10 mM Cholsäure, 2 µM to 100 µM NADP^+ (16 concentrations); nonlinear regression
From the text: as §1, §2, §3, §4

Substance: 12α-HSDH (WT), Wildtyp-Enzym, Clostridium sp. group P strain 48-50, SEQ ID NO:6 (Clostridium sp. ATCC 29733)
- Km [1]: 136 ± 12 µM
- Km [2]: 21,4 ± 2,3 µM

Source: patent EP2441771A1, “New 12alpha-hydroxysteroid dehydrogenase mutants, method for their manufacture and application thereof” (PharmaZell GmbH, priority 2010, dated 2012)
